Results as given in paper PMC11440629 (Advanced Functional Materials, 2023).

Biological target: the molecule itself
Assay: release from hydrogel

B1: NT2RepCT (other)
chain: MSHTTPWTNPGLAENFMNSFMQGLSSMPGFTASQLDDMSTIAQSMVQSIQSLAAQGRTSPNKLQALNMAFASSMAEIAASEEGGGSLSTKTSSIASAMSNAFLQTTGVVNQPFINEITQLVSMFAQAGMNDVSAGNSGRGQGGYGQGSGGNAAAAAAAAAAAAAAAGQGGQGGYGRQSQGAGSAAAAAAAAAAAAAAGSGQGGYGGQGQGGYGQSGNSVTSGGYGYGTSAAAGAGVAAGSYAGAVNRLSSAEAASRVSSNIAAIASGGASALPSVISNIYSGVVASGVSSNEALIQALLELLSALVHVLSSASIGNVSSVGVDSTLNVVQDSVGQYVG
  binding result: binds
